From PMC2362362 (British Journal of Cancer, 1999) come the findings set out here.

The koff is the first-order rate constant of dissociation.

For this experiment, the target named is T1, extracellular domain of the human CD30 receptor fused to the hinge, CH2 and CH3 domain of human IgG1 … (Homo sapiens (Human)., UniProt P28908).
T1 construct: also called recombinant, human sCD30-Fc protein
The experiment in a line: SPR; BIAcore 2000; sCD30-Fc covalently coupled to a CM-5 sensorchip (450 RU, 'low density'); surface saturated by multiple injections of antibody or fragment, flow 20 ul/min; dissociation rates by curve fitting (monovalent for the scFv, bivalent for the mAb). As to conditions: both partners purified. (In general: SPR reads the build-up and loss of mass on a sensor chip optically.)

T1 sequence (P28908 19-385): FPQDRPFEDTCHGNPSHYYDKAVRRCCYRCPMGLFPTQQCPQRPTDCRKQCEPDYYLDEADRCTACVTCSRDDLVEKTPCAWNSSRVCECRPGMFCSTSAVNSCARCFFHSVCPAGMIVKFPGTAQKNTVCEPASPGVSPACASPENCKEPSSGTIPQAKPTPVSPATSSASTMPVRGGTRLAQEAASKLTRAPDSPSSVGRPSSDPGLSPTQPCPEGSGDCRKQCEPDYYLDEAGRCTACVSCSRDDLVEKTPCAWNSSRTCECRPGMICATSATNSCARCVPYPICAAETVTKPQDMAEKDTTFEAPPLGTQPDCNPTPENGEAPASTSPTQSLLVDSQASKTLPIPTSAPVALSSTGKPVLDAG

B1: Ki-4 single-chain variable fragment (scFv), soluble (scFv, V domains shown)
VH: QVKLQESGTELAKPGAAVKMSCKASGYTFTDYWMHWVKQRPGQGLEWIGYINPNTAYTDYNQKFKDKATLTADKSSSTAYMQLRSLTSEDSAVYYCAKKTTQTTWGFPFWGQGTTVTVSS
VL: DIVLTQSPKSMAMSVGERVTLSCKASENVDSFVSWYQQKPGQSPKLLIYGASNRYTGVPDRFAGSGSGRDFTLTISSVQAEDLADYHCGQNYRYPLTFGAGTKLEIK
notes: also called Ki-4 scFv; His-tagged Ki-4 scFv
Regarding B1, the koff was 0.00018 s⁻¹ and the “t1/2 of the antibody-antigen complex (=ln2/koff)” value is 1.07 h.

B2: anti-CD30 monoclonal antibody Ki-4 (antibody, V domains shown)
VH: QVKLQESGTELAKPGAAVKMSCKASGYTFTDYWMHWVKQRPGQGLEWIGYINPNTAYTDYNQKFKDKATLTADKSSSTAYMQLRSLTSEDSAVYYCAKKTTQTTWGFPFWGQGTTVTVSS
VL: DIVLTQSPKSMAMSVGERVTLSCKASENVDSFVSWYQQKPGQSPKLLIYGASNRYTGVPDRFAGSGSGRDFTLTISSVQAEDLADYHCGQNYRYPLTFGAGTKLEIK
notes: also called Ki-4 mAb; Ki-4 whole antibody; copies: 2 + 2
Take B2: the koff amounted to 0.00012 s⁻¹ and the “t1/2 of the antibody-antigen complex (=ln2/koff)” value is 1.6 h.
